Experimental data as given in PMC5412566 (The Journal of Cell Biology, 2017).

Assays:
[1] = target: wild-type SecA-SecYEG translocase (SecA bound to SecYEG-inverted inner membrane vesicles) (E. coli) (UniProt P10408); assay: co-sedimentation
[2] = target: SecA(LCt) (locked C-tail) bound to SecYEG-inverted membrane vesicles (E. coli) (UniProt P10408); assay: co-sedimentation
[3] = target: native PhoA (E. coli) [phosphatase: P00634]; assay: native MS
[4] = target: wild-type SecA-SecYEG translocase (SecA bound to SecYEG-inverted inner membrane vesicles) (E. coli, UniProt P10408;P0AGA2;P0AG96;P0AG99); assay: co-sedimentation
Chain of wild-type SecA-SecYEG translocase (SecA bound to SecYEG-inverted inner membrane vesicles) (P10408 whole entry, chain 1 of 4): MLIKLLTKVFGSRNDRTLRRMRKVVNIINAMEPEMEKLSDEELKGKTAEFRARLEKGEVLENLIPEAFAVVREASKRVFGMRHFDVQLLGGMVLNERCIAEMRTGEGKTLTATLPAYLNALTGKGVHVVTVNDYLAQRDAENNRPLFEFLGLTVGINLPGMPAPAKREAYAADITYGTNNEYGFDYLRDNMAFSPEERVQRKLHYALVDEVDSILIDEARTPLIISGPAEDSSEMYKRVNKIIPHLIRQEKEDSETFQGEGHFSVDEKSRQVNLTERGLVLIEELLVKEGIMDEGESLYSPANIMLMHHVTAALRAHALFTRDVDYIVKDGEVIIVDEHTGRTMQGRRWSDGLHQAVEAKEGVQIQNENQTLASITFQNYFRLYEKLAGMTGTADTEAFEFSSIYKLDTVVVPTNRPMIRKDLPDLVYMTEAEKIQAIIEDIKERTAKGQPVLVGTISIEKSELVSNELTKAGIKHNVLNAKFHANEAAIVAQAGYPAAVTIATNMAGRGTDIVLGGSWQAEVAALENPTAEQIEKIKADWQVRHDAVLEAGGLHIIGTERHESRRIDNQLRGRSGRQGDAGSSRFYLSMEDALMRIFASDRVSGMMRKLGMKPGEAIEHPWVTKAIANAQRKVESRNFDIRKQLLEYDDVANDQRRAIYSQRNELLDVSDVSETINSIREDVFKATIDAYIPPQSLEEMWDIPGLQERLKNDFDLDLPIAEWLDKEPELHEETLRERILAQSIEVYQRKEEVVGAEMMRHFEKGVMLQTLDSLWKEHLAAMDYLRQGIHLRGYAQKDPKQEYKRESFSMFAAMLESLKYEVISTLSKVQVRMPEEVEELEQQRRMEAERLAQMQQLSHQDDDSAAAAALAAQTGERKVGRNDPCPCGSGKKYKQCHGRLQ
Chain of wild-type SecA-SecYEG translocase (SecA bound to SecYEG-inverted inner membrane vesicles) (P0AGA2 whole entry, chain 2 of 4): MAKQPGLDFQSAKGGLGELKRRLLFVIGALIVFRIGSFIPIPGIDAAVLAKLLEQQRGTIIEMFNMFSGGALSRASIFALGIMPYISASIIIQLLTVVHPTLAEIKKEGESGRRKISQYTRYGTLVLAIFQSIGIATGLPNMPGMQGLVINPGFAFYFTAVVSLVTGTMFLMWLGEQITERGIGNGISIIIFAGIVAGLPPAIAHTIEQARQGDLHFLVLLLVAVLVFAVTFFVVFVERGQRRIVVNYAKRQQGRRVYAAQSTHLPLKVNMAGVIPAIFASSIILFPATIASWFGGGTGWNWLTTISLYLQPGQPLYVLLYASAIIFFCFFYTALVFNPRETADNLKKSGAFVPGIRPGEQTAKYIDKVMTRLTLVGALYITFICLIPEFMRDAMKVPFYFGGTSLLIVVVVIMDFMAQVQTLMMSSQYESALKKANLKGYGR
Chain of wild-type SecA-SecYEG translocase (SecA bound to SecYEG-inverted inner membrane vesicles) (P0AG96 whole entry, chain 3 of 4): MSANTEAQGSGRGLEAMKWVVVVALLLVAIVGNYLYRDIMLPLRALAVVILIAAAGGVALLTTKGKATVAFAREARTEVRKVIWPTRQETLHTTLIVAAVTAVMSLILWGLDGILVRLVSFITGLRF
Chain of wild-type SecA-SecYEG translocase (SecA bound to SecYEG-inverted inner membrane vesicles) (P0AG99 whole entry, chain 4 of 4): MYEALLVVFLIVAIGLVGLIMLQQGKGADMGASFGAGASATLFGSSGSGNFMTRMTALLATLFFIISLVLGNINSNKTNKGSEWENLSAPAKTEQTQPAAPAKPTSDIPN

Chain of wild-type SecA-SecYEG translocase (SecA bound to SecYEG-inverted inner membrane vesicles) (E. coli) (P10408 whole entry, chain 1 of 4): as the sequence (P10408 whole entry, chain 1 of 4) above
Chain of wild-type SecA-SecYEG translocase (SecA bound to SecYEG-inverted inner membrane vesicles) (E. coli) (P0AGA2 whole entry, chain 2 of 4, further chain): as the sequence (P0AGA2 whole entry, chain 2 of 4) above
Chain of wild-type SecA-SecYEG translocase (SecA bound to SecYEG-inverted inner membrane vesicles) (E. coli) (P0AG96 whole entry, chain 3 of 4, further chain): as the sequence (P0AG96 whole entry, chain 3 of 4) above
Chain of wild-type SecA-SecYEG translocase (SecA bound to SecYEG-inverted inner membrane vesicles) (E. coli) (P0AG99 whole entry, chain 4 of 4, further chain): as the sequence (P0AG99 whole entry, chain 4 of 4) above
Chain of PhoA (mature domain of proPhoA, signal peptide-less, urea-purified) (P00634 22-471): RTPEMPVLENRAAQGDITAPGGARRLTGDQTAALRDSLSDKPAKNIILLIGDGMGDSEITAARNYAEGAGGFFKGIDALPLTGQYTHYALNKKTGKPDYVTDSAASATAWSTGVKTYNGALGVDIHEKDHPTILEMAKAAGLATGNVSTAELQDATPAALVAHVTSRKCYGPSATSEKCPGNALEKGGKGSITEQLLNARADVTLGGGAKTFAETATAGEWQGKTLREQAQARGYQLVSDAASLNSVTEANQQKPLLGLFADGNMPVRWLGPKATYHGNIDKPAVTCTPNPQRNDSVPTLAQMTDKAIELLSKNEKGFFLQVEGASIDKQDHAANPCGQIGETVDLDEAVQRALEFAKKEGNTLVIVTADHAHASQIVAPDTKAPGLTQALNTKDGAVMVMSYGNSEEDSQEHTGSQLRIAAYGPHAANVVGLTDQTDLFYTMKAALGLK
Chain of HdeA(noMTS) (P0AES9 22-110): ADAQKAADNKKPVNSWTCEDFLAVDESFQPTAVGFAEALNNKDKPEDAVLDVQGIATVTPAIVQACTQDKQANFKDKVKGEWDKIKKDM
Chain of SecA(LCt) (locked C-tail) bound to SecYEG-inverted membrane vesicles (E. coli) (P10408 whole entry, chain 1 of 4): as the sequence (P10408 whole entry, chain 1 of 4) above
Chain of SecA(LCt) (locked C-tail) bound to SecYEG-inverted membrane vesicles (E. coli) (P0AGA2 whole entry, chain 2 of 4, further chain): as the sequence (P0AGA2 whole entry, chain 2 of 4) above
Chain of SecA(LCt) (locked C-tail) bound to SecYEG-inverted membrane vesicles (E. coli) (P0AG96 whole entry, chain 3 of 4, further chain): as the sequence (P0AG96 whole entry, chain 3 of 4) above
Chain of SecA(LCt) (locked C-tail) bound to SecYEG-inverted membrane vesicles (E. coli) (P0AG99 whole entry, chain 4 of 4, further chain): as the sequence (P0AG99 whole entry, chain 4 of 4) above
Chain of YncJ(noMTS) (P64459 23-76): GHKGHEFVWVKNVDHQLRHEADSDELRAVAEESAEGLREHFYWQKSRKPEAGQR
Chain of Lpp(noMTS) (P69776 21-78): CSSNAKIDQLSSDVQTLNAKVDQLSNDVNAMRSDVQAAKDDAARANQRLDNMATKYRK

| Molecule | Kd [1] | also measured |
| --- | --- | --- |
| PhoA (mature domain of proPhoA, signal peptide-less, urea-purified) (from UniProt P00634 22-471) (natural protein) |  | fold reduction of affinity against the wild-type translocase [2]: 18 fold |
| YncJ(noMTS) (from UniProt P64459 23-76) (natural protein) | > 20 µM |  |
| native PhoA (from UniProt P00634 22-471) (enzyme) |  | stoichiometry N [3]: 2 |
| MKQSTIALALLPLLFTPVTKARTPEMPVLE [signal peptide of proPhoA, proPhoA(1–30)] |  | Kd [4]: ~3 µM |

Now from value to molecule, other results behind:

| Kd [1] | Molecule | also measured |
| --- | --- | --- |
| > 20 µM | Lpp(noMTS) (from UniProt P69776 21-78) (natural protein) |  |
| > 20 µM | HdeA(noMTS) (from UniProt P0AES9 22-110) (natural protein) |  |
